Data published in US20060088908A1 (Pieris, published 2006).

T1: recombinant human cytokine interleukin-8 (Promocell) (human, UniProt P10145 23-99, biotin groups on lysine residues (NHS-SS-Biotin) in the ELISA; digoxigenin groups (DIG-NHS) in the colony screening)
T1 construct: also called IL-8
T1 sequence: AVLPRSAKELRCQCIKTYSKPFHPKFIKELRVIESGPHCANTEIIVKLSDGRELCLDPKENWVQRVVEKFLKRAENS

B1: hNGAL mutein N4 with C-terminal Strep-Tag II (phNGAL15 derivative, purified) (designed binder, not shown: small tags and cut ends)
chain: QDSTSDLIPAPPLSKVPLQQNFQDNQFQGKWYLVGLAGNDIYRADSLPGLMYATIYELKEDKSYNVTSVVFYDKKCVYSIRTFVPGSQPGEFTLGNIKSYEAVTSFLVRVVSTNYNQHAMVFFKDVRPNSEEFKITIYGRTKELPSELKENFIRFSKSLGLPENHIVFPVPIDQCIDG
B2: hNGAL mutein RFY-C with C-terminal Strep-Tag II (phNGAL15 derivative, purified) (designed binder, not shown: small tags and cut ends)
chain: QDSTSDLIPAPPLSKVPLQQNFQDNQFQGKWYLVGLAGNGIHRLDNVPPNMYATIYELKEDKSYNVTSVDFLMKKCPYFIRTFVPGSQPGEFTLGNIKSYPFLTSFLVRVVSTNYNQHAMVFFKNVPRNYEEFKITIYGRTKELPSELKENFIRFSKSLGLPENHIVFPVPIDQCIDG
B3: biotinylated synthetic thrombospondin peptide from the cell binding domain of human Thrombospondin1 (peptide)
peptide: RFYVVMWKXXK
modifications: Aca-Aca (amino caproic acid) after Lys8; C-terminal Lys-Biotin
notes: Immobilised through its C-terminal biotin on avidin (ELISA) or streptavidin chip (SPR)
B4: hNGAL mutein RFY-E with C-terminal Strep-Tag II (phNGAL15 derivative, purified) (designed binder, not shown: small tags and cut ends)
chain: QDSTSDLIPAPPLSKVPLQQNFQDNQFQGKWYLVGLAGNGITRVDTLPSRMYATIYELKEDKSYNVTSVPFMGKKCKYKIRTFVPGSQPGEFTLGNIKSYMSNTSFLVRVVSTNYNQHAMVFFKQVHKNPESFKITIYGRTKELPSELKENFIRFSKSLGLPENHIVFPVPIDQCIDG

Columns and labels:
[1] = biological target: Avidin (Fluka) (UniProt P02701 25-152); experiment: ELISA control without IL-8: avidin-coated wells only, mutein N4 titrated, anti-strepII-antibody-HRP detection, OD450
Avidin (Fluka), sequence (P02701 25-152 limits assumed): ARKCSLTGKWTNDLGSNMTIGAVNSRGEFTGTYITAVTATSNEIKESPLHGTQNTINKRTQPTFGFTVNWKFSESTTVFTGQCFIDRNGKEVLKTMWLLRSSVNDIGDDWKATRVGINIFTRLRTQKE
Protocol: (§1) For the detection of binding in an ELISA experiment two rows (12 wells each) of a 96 microtiter plate (Maxisorb, Nunc) were coated with 50 μl of a 50 μg/ml solution of Avidin (Fluka) in PBS overnight at 4° C. After washing three times with PBST, one row was treated with 50 μl/well of a 1 μM solution of biotinylated IL-8 in PBST, whereas the second row was incubated with PBST as a control. After 1 hour at RT, all wells were washed three times with PBST and unspecific binding sites were saturated with 100 μl of 4% w/v skimmed milk powder in PBST for 1 hour at RT.
(§2) As a control for unspecific binding to avidin, a similar dilution series of the mutein N4 was applied to wells where the IL-8 had been omitted. Complex formation was allowed for 1 hour at RT, followed by three washes with PBST and incubation at RT for 1 hour with anti-strepII-antibody-HRP-conjugate (IBA) diluted 1:8000 in PBST.
(§3) Detection of bound mutein N4 was accomplished using 3,3′,5,5′-tetramethylbenzidine and H₂O₂ as substrates for horseradish-peroxidase. For this purpose, all wells were filled with 100 μl of a ready-to-use HRP-substrate solution (Biochem Immunosystems). The colour development was stopped after a few minutes by adding 100 μl of 0.3 M sulphuric acid. Product formation was measured via endpoint absorption at 450 nm in a SpectraMax 250 photometer (Molecular Devices).

[2] = biological target: T1, recombinant human cytokine …; experiment: ELISA, apparent KD, biotinylated IL-8 on avidin-coated plate, anti-strepII-antibody-HRP
Protocol: as §1, §2, §3

[3] = biological target: B3; experiment: ELISA, apparent KD, biotinylated peptide on avidin-coated plate, anti-strepII-antibody-HRP
Protocol: For the detection of binding in an ELISA (Enzyme-linked Immunosorbent Assay) the wells of a microtiter plate (Maxisorb, Nunc) were filled each with 50 μl of a 50 μg/ml solution of Avidin (Fluka) in PBS and were incubated over night at room temperature (RT). After washing three times with PBST, 50 μl of a 1 μM solution of the biotinylated thrombospondin peptide SEQ ID NO:18 in PBST were filled into the wells and the peptide was immobilized via complex formation between biotin and the preadsorbed avidin. After incubation for one hour the solution was removed and the wells of the microtiter plate were washed three times with PBST. In order to saturate unspecific binding sites, the wells were filled with 100 μl of 4% w/v BSA in PBST and incubated for one hour at RT, followed by three times washing with PBST.
Then a dilution series of the muteins from Example 9 was prepared, starting from 100 nM concentration, and followed by 1 hour incubation at RT. As a control for unspecific binding to avidin, a similar dilution series of hNGAL and its muteins was applied to wells where the thrombospondin peptide had been omitted. After washing three times with PBST, Anti-strepII-antibody-HRP-conjugate (IBA), diluted 1:8000 with PBST, was applied to the wells. Incubation was performed for 1 hour at RT and followed by washing three times with PBST and twice with PBS. […]

[4] = biological target: B3; experiment: SPR, BIAcore X, steady state, biotinylated peptide on sensor chip SA
Protocol: The binding affinity of the hNGAL muteins to the thrombospondin peptide SEQ ID NO: 18 was determined by surface plasmon resonance (SPR) using the BIAcore X system (BIACORE). First 35 μl of the biotinylated thrombospondin peptide at a concentration of 1 μg/ml (prepared by mixing 1 μl of a 200 μg/ml peptide solution in DMF with 199 μl HBS buffer containing 150 mM NaCl, 10 mM HEPES pH 7.4, 3 mM EDTA) was immobilized to the surface of one flow channel of a streptavidin-coated sensor chip SA (BIACORE) according to the instructions of the manufacturer, resulting in an amount of ca. 400 response units (RU). Binding curves of the hNGAL muteins were then measured by applying 35 μl of each purified muteins from Example 9 in HBS buffer at concentrations between 500 nM and 25 nM using HBS-EP (HBS containing 0.005% Surfactant P20) as a running buffer and a continuous flowrate of 5 μl/min.
Steady state resonance values were measured at the end of the injection phase for the channel with the immobilized thrombospondin peptide for each protein concentration applied. Only negligible buffer effects were detected in the second channel of the sensor chip, which served as a control. These values were directly plotted against the concentration of the hNGAL mutein. […]

[5] = biological target: streptavidin of the streptavidin-coated sensor chip SA (BIACORE) (UniProt P22629 37-163, limits assumed); experiment: SPR, BIAcore X, streptavidin-coated sensor chip SA
streptavidin of the streptavidin-coated sensor chip SA (BIACORE), sequence (P22629 37-163 limits assumed): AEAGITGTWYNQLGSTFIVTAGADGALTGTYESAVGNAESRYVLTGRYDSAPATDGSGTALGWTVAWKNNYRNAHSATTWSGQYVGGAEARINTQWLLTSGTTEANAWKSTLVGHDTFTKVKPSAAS

[6] = biological target: T2, original hNGAL with C-terminal Strep-Tag II (encoded by phNGAL15, purified) (human, UniProt P80188 21-198); experiment: ELISA: biotinylated thrombospondin peptide on avidin-coated wells, hNGAL titrated, anti-strepII-antibody-HRP detection, A450
T2 construct: mature
Protocol: For the detection of binding in an ELISA (Enzyme-linked Immunosorbent Assay) the wells of a microtiter plate (Maxisorb, Nunc) were filled each with 50 μl of a 50 μg/ml solution of Avidin (Fluka) in PBS and were incubated over night at room temperature (RT). After washing three times with PBST, 50 μl of a 1 μM solution of the biotinylated thrombospondin peptide SEQ ID NO:18 in PBST were filled into the wells and the peptide was immobilized via complex formation between biotin and the preadsorbed avidin. After incubation for one hour the solution was removed and the wells of the microtiter plate were washed three times with PBST. In order to saturate unspecific binding sites, the wells were filled with 100 μl of 4% w/v BSA in PBST and incubated for one hour at RT, followed by three times washing with PBST. […]
as §3, with “hNGAL muteins” for “mutein N4”, “purpose,” for “purpose, all wells were filled with”, “Immunosystems) was filled into the wells and the” for “Immunosystems). The”, “via the” for “via”

Binder | binding result [1] | Kd [2] [nM] | Kd [3] [nM] | Kd [4] [nM] | binding result [5] | binding result [6]
B1 | no binding (tested: 1000 nM) | 300 |  |  |  | 
B2 |  |  | 4.6 | 106 | no binding | 
B3 |  |  |  |  |  | no binding (tested: 200 nM)
B4 |  |  | 8.2 | 107 | no binding | 
